Biological target: nDARC(Y)-Fc: N-terminal 60 residues of human DARC (FyB) with tyrosine at position 41, fused to the Fc region of human IgG1 (human) (UniProt Q16570)
Test: BLI; nDARC(Y)-Fc immobilised via its Fc on Anti-human IgG Fc Capture biosensors (20 ug/ml, 600 s); PvDBPII 1-120 nM; 25 C; PBS with 1 mg/ml BSA; reference biosensors with human IgG1 Fc subtracted; 1:2 binding model and steady-state analysis; mean of two experiments

Row | Substance | Kd
1 | Recombinant Plasmodium vivax Duffy Binding Protein region II, variant PvW1 (PvDBPII PvW1) (from UniProt P22290 211-525) (domain or fragment) | 12 nM
2 | Recombinant Plasmodium vivax Duffy Binding Protein region II, variant Salvador I (PvDBPII SalI) (from UniProt P22290 211-525) (domain or fragment) | 8.8 nM

Reference: article PMC10457348
